Results reported in the supplement of paper PMC10567573.

B1: ZNF511 (parent)
chain: YEHHYHTLHGNVCSFCKRAFPSGH

Variants of: B1
Test: protein stability index of a GFP-peptide fusion (GPS, HEK-293T) (PSI 1-6); higher = more stable
Conditions: c terminus: a fixed tail appended
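Note: lentivirally expressed fusions sorted by FACS into six bins by GFP to DsRed ratio, PSI derived from sequencing read proportions per bin multiplied by bin number.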

Point of comparison: YEHHYHTLHGNGCSFCKRAFPSGH [V12G], protein stability index 1.84. Against it:
- YEHHYHTLHGNVCSFCWRAFPSGH [K17W] — lower, 1.3
- YEHHYHTLHGNVCSFCNRAFPSGH [K17N] — higher, 2.18
- YEHHYHTLHGNVCSFCARAFPSGH [K17A] — higher, 2.23
- YEHHYHTLHGNVCSFCVRAFPSGH [K17V] — higher, 1.87
- YEHHYHTLHGNVCSFCDRAFPSGH [K17D] — higher, 2.5
- YEHHYHTLHGNVCSFCLRAFPSGH [K17L] — higher, 2.4
- YEHHYHTLHGNVCSFCYRAFPSGH [K17Y] — lower, 1.77
- YEHHYHTLHGNVCSFCPRAFPSGH [K17P] — lower, 1.78
- YEHHYHTLHGNVCSFCERAFPSGH [K17E] — higher, 2.59
- YEHHYHTLHGNVCSFCRRAFPSGH [K17R] — higher, 2.2
- YEHHYHTLHGNVCSFCHRAFPSGH [K17H] — higher, 2.18
- YEHHYHTLHGNVCSFCMRAFPSGH [K17M] — lower, 1.77
- YEHHYHTLHGNVCSFCTRAFPSGH [K17T] — higher, 2.02
- YEHHYHTLHGNVCSFCIRAFPSGH [K17I] — the same, 1.84
- YEHHYHTLHGNVCSFCSRAFPSGH [K17S] — higher, 2.22
- YEHHYHTLHGNVCSFCGRAFPSGH [K17G] — higher, 2.61
- YEHHYHTLHGNVCSFCQRAFPSGH [K17Q] — higher, 2.41
- YEHHYHTLHGNVCSFCCRAFPSGH [K17C] — higher, 1.89
- YEHHYHTLHGNVCSFCFRAFPSGH [K17F] — the same, 1.84
- YEHHYHTLHGNVCSFCKRYFPSGH [A19Y] — higher, 2.25
- YEHHYHTLHGNVCSFCKREFPSGH [A19E] — higher, 2.13
- YEHHYHTLHGNVCSFCKRKFPSGH [A19K] — higher, 2.11
- YEHHYHTLHGNVCSFCKRRFPSGH [A19R] — higher, 2.37
- YEHHYHTLHGNVCSFCKRWFPSGH [A19W] — higher, 2.25
- YEHHYHTLHGNVCSFCKRDFPSGH [A19D] — higher, 2.42
- YEHHYHTLHGNVCSFCKRQFPSGH [A19Q] — lower, 1.47
- YEHHYHTLHGNVCSFCKRFFPSGH [A19F] — higher, 2.84
- YEHHYHTLHGNVCSFCKRNFPSGH [A19N] — higher, 2.37
- YEHHYHTLHGNVCSFCKRTFPSGH [A19T] — higher, 2.29
- YEHHYHTLHGNVCSFCKRVFPSGH [A19V] — higher, 1.99
- YEHHYHTLHGNVCSFCKRHFPSGH [A19H] — higher, 2.85
- YEHHYHTLHGNVCSFCKRPFPSGH [A19P] — higher, 1.89
- YEHHYHTLHGNVCSFCKRCFPSGH [A19C] — higher, 2.19
- YEHHYHTLHGNVCSFCKRSFPSGH [A19S] — higher, 2.28
- YEHHYHTLHGNVCSFCKRLFPSGH [A19L] — higher, 2.36
- YEHHYHTLHGNVCSFCKRGFPSGH [A19G] — higher, 1.96
- YEHHYHTLHGNVCSFCKRIFPSGH [A19I] — higher, 1.85
- YEHHYHTLHGNVCSFCKRMFPSGH [A19M] — higher, 2.29
- YEHHYHTLHGNVCSYCKRAFPSGH [F15Y] — higher, 2.31
- YEHHYHTLHGNVCSWCKRAFPSGH [F15W] — higher, 2.96
- YEHHYHTLHGNVCSSCKRAFPSGH [F15S] — higher, 2.39
- YEHHYHTLHGNVCSHCKRAFPSGH [F15H] — higher, 2.39
- YEHHYHTLHGNVCSPCKRAFPSGH [F15P] — higher, 2.01
- YEHHYHTLHGNVCSLCKRAFPSGH [F15L] — higher, 2.32
- YEHHYHTLHGNVCSDCKRAFPSGH [F15D] — higher, 2.48
- YEHHYHTLHGNVCSICKRAFPSGH [F15I] — higher, 2.38
- YEHHYHTLHGNVCSRCKRAFPSGH [F15R] — higher, 2.35
- YEHHYHTLHGNVCSNCKRAFPSGH [F15N] — higher, 2.72
- YEHHYHTLHGNVCSQCKRAFPSGH [F15Q] — higher, 3.25
- YEHHYHTLHGNVCSTCKRAFPSGH [F15T] — higher, 2.99
- YEHHYHTLHGNVCSACKRAFPSGH [F15A] — higher, 2.76
- YEHHYHTLHGNVCSCCKRAFPSGH [F15C] — higher, 3.02
- YEHHYHTLHGNVCSGCKRAFPSGH [F15G] — higher, 2.93
- YEHHYHTLHGNVCSVCKRAFPSGH [F15V] — higher, 2
- YEHHYHTLHGNVCSKCKRAFPSGH [F15K] — higher, 2.21
- YEHHYHTLHGNVCSECKRAFPSGH [F15E] — higher, 2.79
- YEHHYHTLHGNVCSMCKRAFPSGH [F15M] — higher, 2.54
- YEHHYHTLHGNICSFCKRAFPSGH [V12I] — higher, 2.3
- YEHHYHTLHGNCCSFCKRAFPSGH [V12C] — higher, 2.02
- YEHHYHTLHGNRCSFCKRAFPSGH [V12R] — higher, 2.24
- YEHHYHTLHGNACSFCKRAFPSGH [V12A] — higher, 2.44
- YEHHYHTLHGNKCSFCKRAFPSGH [V12K] — higher, 2
- YEHHYHTLHGNECSFCKRAFPSGH [V12E] — higher, 3.67
- YEHHYHTLHGNMCSFCKRAFPSGH [V12M] — higher, 2.17
- YEHHYHTLHGNWCSFCKRAFPSGH [V12W] — higher, 2.14
- YEHHYHTLHGNLCSFCKRAFPSGH [V12L] — higher, 2.06
- YEHHYHTLHGNPCSFCKRAFPSGH [V12P] — higher, 2.31
- YEHHYHTLHGNSCSFCKRAFPSGH [V12S] — higher, 2.41
- YEHHYHTLHGNYCSFCKRAFPSGH [V12Y] — higher, 2.13
- YEHHYHTLHGNNCSFCKRAFPSGH [V12N] — higher, 2.73
- YEHHYHTLHGNQCSFCKRAFPSGH [V12Q] — higher, 2.66
- YEHHYHTLHGNHCSFCKRAFPSGH [V12H] — higher, 2.4
- YEHHYHTLHGNDCSFCKRAFPSGH [V12D] — higher, 3.41
- YEHHYHTLHGNFCSFCKRAFPSGH [V12F] — higher, 2.05
- YEHHYHTLHGNTCSFCKRAFPSGH [V12T] — higher, 2.44
- YEHHYHTLHGRVCSFCKRAFPSGH [N11R] — higher, 2.62
- YEHHYHTLHGTVCSFCKRAFPSGH [N11T] — higher, 2.68
- YEHHYHTLHGHVCSFCKRAFPSGH [N11H] — higher, 2.21
- YEHHYHTLHGKVCSFCKRAFPSGH [N11K] — higher, 2.31
- YEHHYHTLHGSVCSFCKRAFPSGH [N11S] — higher, 1.95
- YEHHYHTLHGQVCSFCKRAFPSGH [N11Q] — higher, 2.2
- YEHHYHTLHGIVCSFCKRAFPSGH [N11I] — lower, 1.83
- YEHHYHTLHGFVCSFCKRAFPSGH [N11F] — higher, 2.6
- YEHHYHTLHGYVCSFCKRAFPSGH [N11Y] — higher, 1.99
- YEHHYHTLHGCVCSFCKRAFPSGH [N11C] — higher, 2.73
- YEHHYHTLHGPVCSFCKRAFPSGH [N11P] — higher, 2.6
- YEHHYHTLHGVVCSFCKRAFPSGH [N11V] — higher, 1.87
- YEHHYHTLHGGVCSFCKRAFPSGH [N11G] — higher, 2.12
- YEHHYHTLHGLVCSFCKRAFPSGH [N11L] — lower, 1.77
- YEHHYHTLHGEVCSFCKRAFPSGH [N11E] — higher, 2.22
- YEHHYHTLHGDVCSFCKRAFPSGH [N11D] — higher, 2.75
- YEHHYHTLHGMVCSFCKRAFPSGH [N11M] — higher, 2.68
- YEHHYHTLHGWVCSFCKRAFPSGH [N11W] — higher, 2.17
